# Test results taken from patent publication US20190309092A1.
# Biological target: TNFα (UniProt P01375)
# Assay: SPR, Biacore T100, single-cycle kinetics, 1:1 Langmuir fit; Target 1 column
# Chain of UniProt P01375 (P01375 77-233 limits assumed): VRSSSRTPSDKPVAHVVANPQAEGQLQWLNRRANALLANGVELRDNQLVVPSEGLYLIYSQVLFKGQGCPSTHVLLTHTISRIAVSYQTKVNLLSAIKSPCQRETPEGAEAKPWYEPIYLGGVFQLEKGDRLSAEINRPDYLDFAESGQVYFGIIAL
substance,measurement,value
Humira IgG(Full) (antibody),Kd,0.0643 nM
